# According to the supplement of paper PMC10126150:
# ± gives the standard deviation of the averaged measurements.
# Tested on: ATP
# Experiment: switch fluorescence ratio, 500 uM ATP over buffer (Cy3 cluster intensity, sum of 5 cycles each) (fold (ratio)); higher = stronger signal-on switching upon ATP binding; sequences stand for … in TCGTCGGCAGCGTCAGATGTGTATAAGAGACAGTTTTTTTTTTTTTTTTTTTTTTTTT…TC
# Conditions: aptamer strand: ATP DNA aptamer (quencher-CACCTGGGGGAGTATTGCGGAGGAAGG + anchor), 100 nM annealed; ATP concentration: 500 uM
# Method in brief: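 Cy3-labelled switching-strand clusters on a modified Illumina MiSeq flow-cell were annealed to 100 nM quencher-labelled ATP aptamer, imaged in selection buffer, then imaged after 15 min with 500 uM ATP at 22 °C. Five buffer/ATP cycles ran, with NaOH stripping and re-annealing between them. The fluorescence ratio is summed target-cycle over summed buffer-cycle Cy3 intensity per cluster, averaged per switch-domain sequence. Clusters outside 100-1000 RFU were excluded.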
# 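Further: ATP exposure 15 min at 22 °C before imaging.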
row,Sequence,switch fluorescence ratio
1,TATAGGGAAT,0.98384 ± 3.5e-05
2,CCGATTCGGG,1.012 ± 0.0064
3,CCTGAGGATG,1.03 ± 0.015
4,GTTAGCTAGG,1.04 ± 0.026
5,GAGTGTTTTG,0.9957 ± 0.008
6,TTGTCAGACT,0.9801 ± 0.0028
7,TAAAACGATC,0.966 ± 0.036
8,GAGGGAGCTT,1.04 ± 0.026
9,AAAAATCGGT,0.996 ± 0.044
10,ATGTGGCGTC,1.01 ± 0.019
11,TTTTGGGTCC,1.06 ± 0.04
12,ATCGCGGGCA,1.02 ± 0.027
13,GTGAAAGGGC,1.01 ± 0.034
14,CTTGTGGCGT,1 ± 0.049
15,CGGGTGCTTT,1.05 ± 0.013
16,GAGTTTTATG,0.9631 ± 0.0025
17,GATTTCATG,0.993 ± 0.019
18,TCCACGGTCT,1.0273 ± 0.00046
19,GACGAAAGGC,1.05 ± 0.02
20,TGCCCATGAT,0.963 ± 0.018
21,CTATTGGTTT,0.9746 ± 0.0021
22,GCTTTTAGGT,0.968 ± 0.06
23,CGGAAGGGGG,1 ± 0.048
24,TTGAAGGTGG,1.08 ± 0.12
25,TGACAAAGA,1 ± 0.022

row,Sequence,switch fluorescence ratio
1,AAAAGACCCT,1.04 ± 0.071
2,TAACCCGGGC,1.03 ± 0.066
3,ATGGGGGGAC,0.987 ± 0.027
4,GAGAGTGCGG,1.04 ± 0.0067
5,GTTATTTTAA,0.9846 ± 0.0027
6,TAGCCCCCAG,1.6 ± 0.78
7,GGTGTGAATT,1.02 ± 0.034
8,TCGGTCCCTT,0.988 ± 0.035
9,CCTCTGATTT,1.47 ± 0.3
10,GGATTAACTA,0.9887 ± 0.0061
11,AAGAAGTAGG,1 ± 0.062
12,AGGCCCTTTA,1.12 ± 0.17
13,AAGACGGGTT,1.02 ± 0.077
14,TACGCGATTT,1.09 ± 0.08
15,GGGGGGGCTT,0.998 ± 0.031
16,TTAACGGTAG,0.983 ± 0.038
17,AGGGACTTGT,1 ± 0.03
18,GGTACGAAAC,1.68 ± 0.75
19,GGGGGCGGGT,1 ± 0.044
20,CGCTATTTTT,1.02 ± 0.02
21,CTTTTTTGTT,1 ± 0.021
22,GATGATAACG,0.99754 ± 0.00091
23,TATCTAGGTT,1 ± 0.02
24,GCGGGTCACC,0.992 ± 0.01
25,TCCAGATCAT,0.993 ± 0.018

row,Sequence,switch fluorescence ratio
1,CAGTAAGTCT,1.05 ± 0.076
2,AGGCAAAGTT,0.989 ± 0.026
3,TGTAAGGTGA,1.03 ± 0.022
4,CATGGTTGG,1.01 ± 0.051
5,AGGGAGTTCG,0.977 ± 0.03
6,TCTGGGTGGC,0.996 ± 0.028
7,AGAAGAGTGT,1.03 ± 0.038
8,GCTTTTGCTG,0.997 ± 0.013
9,ACAAGTCGTT,0.972 ± 0.039
10,GTTAAGGGCC,0.99 ± 0.011
11,GATTATTTGG,0.986 ± 0.011
12,TACCTTCTTG,1.176 ± 0.0027
13,CAACAACATT,1.07 ± 0.12
14,TGGGGGGTGG,1 ± 0.041
15,GGGAACATTT,1.022 ± 0.0086
16,GTTCTTGTAT,0.988 ± 0.029
17,AAATCGTTTT,0.972 ± 0.047
18,GAGTACTAGT,1.015 ± 0.0072
19,TGGGAAGTCA,0.991 ± 0.012
20,CGACTTACGG,1.11 ± 0.03
21,TTATGGGTTG,1.002 ± 0.0039
22,AGGTAGGATT,1.01 ± 0.05
23,GTCGGGGGTT,1.02 ± 0.049
24,CAATAGTAGA,1.01 ± 0.036
25,TATTTGGTTG,0.995 ± 0.018

row,Sequence,switch fluorescence ratio
1,CCCTTGACGG,1.07 ± 0.14
2,GTGTCAAAGA,0.984 ± 0.02
3,CAATGGAAAT,0.984 ± 0.025
4,CGATGATTGT,1.03 ± 0.059
5,TCGACACTGA,1.058 ± 0.0022
6,TACGGAGTGG,1.06 ± 0.026
7,CATTTGAGTG,1 ± 0.042
8,TAGCGTATGA,1.03 ± 0.014
9,ACCGTGAGGC,1.02 ± 0.088
10,AAATTGGTCC,1.02 ± 0.016
11,AGCGTATGCA,1.02 ± 0.024
12,GGGATCATGG,1.08 ± 0.083
13,TTCTGGTTTT,0.9727 ± 0.0026
14,GGTCGATGAT,0.98739 ± 0.00068
15,GATATTAGGA,1 ± 0.088
16,TAATGTTCTC,1.02 ± 0.011
17,TGCAAGTTTG,1 ± 0.017
18,TTATGATAGG,1.016 ± 0.0079
19,TGGCTTAGGG,0.98975 ± 0.00065
20,TTTAGTTACG,0.987 ± 0.013
21,CCGTTATTCT,1.35 ± 0.27
22,TCGGTTTCG,0.989 ± 0.095
23,TGAAGTATGG,0.9517 ± 0.0024
24,GATGGGACAG,1.01 ± 0.0019
25,TCGTTTATTT,1.02 ± 0.014
